Results on 2 molecules are retold here after patent US20190092852A1 (Genentech, published 2019).

Assay [1] deals with T1, human IL-33 (R&D Systems, #3625-IL-010/CF) (human, UniProt O95760 112-270).
T1 sequence (looked up): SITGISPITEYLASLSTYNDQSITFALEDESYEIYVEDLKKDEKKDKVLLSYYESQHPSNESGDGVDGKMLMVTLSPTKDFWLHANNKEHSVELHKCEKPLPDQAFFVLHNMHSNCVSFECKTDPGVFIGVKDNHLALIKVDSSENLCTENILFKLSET
As to the kind of experiment: cell-based or functional assay.

For assay [2], the target named is T2, cynomolgus monkey N-terminal 6-His-tagged and C-terminal Avi-tagged IL-33 (S112-T270) (cynomolgus monkey).
T2 chain: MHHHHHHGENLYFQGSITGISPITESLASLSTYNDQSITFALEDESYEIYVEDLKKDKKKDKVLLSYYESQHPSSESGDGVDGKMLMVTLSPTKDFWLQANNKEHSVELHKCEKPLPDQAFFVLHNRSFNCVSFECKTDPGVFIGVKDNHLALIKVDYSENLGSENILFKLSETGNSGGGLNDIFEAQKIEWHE
The experiment in a line: cell-based or functional assay.

Assay [3] concerns the target T1, human IL-33 (R&D Systems, …). As to the kind of experiment: SPR Biacore T200, 25 C. An outline of the steps: (§1)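 Antibodies captured via anti-Fc on CM5 chip; IL-33 injected at 3.7–100 nM (three-fold series), 4 min association, 10 min dissociation, 30 μl/min, ADA pH 7.4 buffer with 0.15 M NaCl, EDTA, Tween-20, at 25 °C or 37 °C. KD = koff/kon from 1:1 Langmuir fit; t1/2 = ln(2)/(60*koff).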
On the technique in general: Surface plasmon resonance follows binding to a sensor surface in real time, without labels.

Assay [4] deals with T3, cyno IL-33 N-His (cynomolgus monkey).
T3 chain: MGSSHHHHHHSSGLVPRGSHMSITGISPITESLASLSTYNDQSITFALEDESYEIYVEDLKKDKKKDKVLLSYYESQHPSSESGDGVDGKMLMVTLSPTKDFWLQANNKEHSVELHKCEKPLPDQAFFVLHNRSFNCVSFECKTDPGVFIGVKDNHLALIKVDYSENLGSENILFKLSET
As to the kind of experiment: SPR Biacore T200, 25 C. An outline of the steps: as §1

Assay [5] addresses T4, human IL-33 N-His (human).
T4 chain: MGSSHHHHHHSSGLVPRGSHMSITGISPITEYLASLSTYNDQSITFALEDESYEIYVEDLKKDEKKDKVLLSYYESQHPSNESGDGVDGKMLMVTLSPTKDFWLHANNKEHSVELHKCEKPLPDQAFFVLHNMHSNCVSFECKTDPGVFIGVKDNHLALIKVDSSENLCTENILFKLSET
The experiment in a line: cell-based or functional assay.

In assay [6] the target is T5, human IL-33 (construct not stated) (human, UniProt O95760 112-270).
T5 sequence (looked up): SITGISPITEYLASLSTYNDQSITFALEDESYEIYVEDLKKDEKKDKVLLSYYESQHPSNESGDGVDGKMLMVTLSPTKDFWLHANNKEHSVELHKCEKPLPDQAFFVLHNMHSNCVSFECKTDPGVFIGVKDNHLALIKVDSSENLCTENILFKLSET
As to the kind of experiment: cell-based or functional assay.

Assay [7] deals with T1, human IL-33 (R&D Systems, …). As to the kind of experiment: cell-based or functional assay. The source holds these as a separate data set.
Assay [8] concerns the target T2, cynomolgus monkey N-terminal …. The experiment in a line: cell-based or functional assay.
The target in assay [9] is T1, human IL-33 (R&D Systems, …). The experiment in a line: cell-based or functional assay. The source holds these as a separate data set.
Assay [10] shares this target. The experiment in a line: cell-based or functional assay. The source holds these as a separate data set.

B1: 10C12.38.H6.87Y.58I IgG4 (antibody, V domains shown)
VH: EVQLVESGGGLVQPGGSLRLSCAASGFTFSSFSMSWVRQAPGKGLEWVATISGGKTFTDYVDSVKGRFTISRDDSKNTLYLQMNSLRAEDTAVYYCTRANYGNWFFEVWGQGTLVTVSS
VL: EIVLTQSPATLSLSPGERATLSCRASESVAKYGLSLLNWFQQKPGQPPRLLIFAASNRGSGIPARFSGSGSGTDFTLTISSLEPEDFAVYYCQQSKEVPFTFGQGTKVEIKR
notes: also called anti-IL33 10C12.38.H6.87Y.58I IgG4
Consider B1, for which, in assay [1], the “HEK-BLUE SEAP reporter IC50” value is 2.4 pM; the “IFN-γ secretion from primary NK cells, IC50” value came out at 30 pM; the “phospho-p38 in primary basophils, IC50” value came out at 0.15 pM. Also, the “HEK-BLUE SEAP reporter IC50” value in [2] came to 4.2 nM. Also, in [3], binding was characterised by a dissociation constant (Kd) of 0.133 nM; the koff – broadly, the first-order rate constant of dissociation – was 0.000613 s⁻¹; the on-rate constant (kon) (commonly a measure of how fast the partners come together) is 4.6e+06 M⁻¹ s⁻¹; the t1/2 came to 19 min. In addition, in [4], binding was characterised by a dissociation constant (Kd) of 0.265 nM, the koff was 0.000278 s⁻¹, the on-rate constant (kon) was 1.05e+06 M⁻¹ s⁻¹ and the t1/2 came to 42 min. Moreover, the “IC50; SEAP reporter, HEK-BLUE IL-33 cells, 15 pM human IL-33 N-His, 20 h” value in assay [5] was determined as 12 pM. In assay [6], the “IC50 (read off the curve); phospho-p38 MFI in CD123+ basophils (average from 2 donors), 10 ng/ml IL-33” value is around 300 pM.

B2: H4H9659P (antibody, IgG4, V domains shown)
VH: QVQLVQSGAEVKKPGASVKVSCKASGYTFNSYGISWVRQAPGQGLEWMGWISSHNGNSHYVQKFQGRVSMTTDTSTSTAYMELRSLRSDDTAVYYCARHSYTTSWYGGFDYWGQGTLVTVSS
VL: DIQMTQSPSSVSASVGDRVTITCRASQGFSSWLAWYQQKPGKAPQLLIYAASSLQSGVPSRFSGSGSGSDFTLTISSLQPEDFATYYCQQANSFPLTFGGGTKVEIK
notes: also called RG7
B2: in assay [3], the Kd – broadly, the free concentration of one partner at which half of the binding sites on the other are occupied at equilibrium, for simple one-to-one binding – worked out at 1.09 nM; the koff turned out to be 0.000499 s⁻¹; the association rate constant (kon) was 456000 M⁻¹ s⁻¹; the t1/2 was found to be 23 min. In [4], this molecule registered a dissociation constant (Kd) of 2.61 nM, an off-rate (koff) of 0.000479 s⁻¹, an on-rate (kon) of 183000 M⁻¹ s⁻¹ and a t1/2 of 24 min. For the same molecule, the “IC50; SEAP reporter (OD 620), HEK-BLUE IL-33/IL-1beta cells, 10 pM hIL-33” value in assay [7] is 9.2e-11 M. Further, the “IC50; SEAP reporter (OD 620), HEK-BLUE IL-33/IL-1beta cells, 5 pM cyno IL-33 (5pM cIL-33-Nhis)” value in [8] was found to be 6.6e-08 M. Moreover, the “IC50, IL-33-induced phospho-p38 in primary human basophils, 500 pM hIL-33” value in [9] is 6.7e-13 M. Also, in assay [10], the “IC50 (read off the curve)” value was around 0.7 pM.
